Laboratory results: publication PMC3573033, “Allosteric Regulation of Serine Protease HtrA2 through Novel Non-Canonical Substrate Binding Pocket” (PLoS ONE, 2013)

T1: HtrA2 (High temperature requirement protease A2), mature (Δ133 HtrA2), wild type (UniProt O43464 134-458)
T1 construct: HtrA2 (High temperature requirement protease A2), mature form Δ133, 325 amino acids; numbers count on: the mature protein; source: E. coli BL21 (DE3) pLysS, purified (nickel-IDA, gel permeation chromatography)
T1 sequence (looked up): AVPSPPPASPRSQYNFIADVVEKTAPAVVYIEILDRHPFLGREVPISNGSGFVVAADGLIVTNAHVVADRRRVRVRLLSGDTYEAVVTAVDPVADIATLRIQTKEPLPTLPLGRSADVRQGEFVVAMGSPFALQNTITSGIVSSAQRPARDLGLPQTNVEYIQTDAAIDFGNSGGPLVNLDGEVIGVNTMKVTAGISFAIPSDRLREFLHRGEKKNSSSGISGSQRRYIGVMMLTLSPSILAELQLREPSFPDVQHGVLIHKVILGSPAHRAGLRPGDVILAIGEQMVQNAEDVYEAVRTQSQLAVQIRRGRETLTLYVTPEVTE

B1: FITC-labelled β-casein (natural protein)
chain: RELEELNVPGEIVESLSSSEESITRINKKIEKFQSEEQQQTEDELQDKIHPFAQTQSLVYPFPGPIPNSLPQNIPPLTQTPVVVPPFLQPEVMGVSKVKEAMAPKHKEMPFPKYPVEPFTESQSLTLTDVENLHLPLPLLQSWMHQPHQPLPPTVMFPPQSVLSLSQSKVLPVPQKAVPYPQRDMPIQAFLLYQEPVLGPVRGPFPIIV
modifications: FITC label

Assays:
[1] = biological target: HtrA2 (High temperature requirement protease A2), mature (Δ133 HtrA2), wild type (UniProt O43464)
[2] = biological target: HtrA2 N-SPD (N-terminal and serine protease domains, residues 1-210)
[3] = biological target: T1, HtrA2 (High temperature requirement …); test: ITC; MicroCal ITC200; 200 µl of wild type or N216A/S219A HtrA2 (20 to 50 µM) in the cell, titrated with 1.5 µl injections of 0.4 mM activator peptide; 20 mM Na2HPO4/NaH2PO4, 100 mM NaCl, pH 7.8; 25°C; one site-binding model; details: both partners purified

Row | Binder | Km, cleavage of FITC-labelled β-casein (steady state kinetics) [1] | Km, cleavage of FITC-labelled β-casein (steady state kinetics) [2] | Kd [3]
1 | B1 | 4.59 µM | 3.02 µM | 
2 | SEHRRHFPNCFFV [13mer activating peptide SEHRRHFPNCFFV] |  |  | 7.5 µM
